From patent US20140056907A1 (Regeneron, published 2014)

Columns and labels:
mouse ASIC3 = target: T1, mouse ASIC3 (mouse, UniProt Q6X1Y6 1-530); assay: FACS, 3T3/mASIC3 cells
T1 construct: whole, on cells; Expressed on stably transfected 3T3 cells (3T3/mASIC3); also called mASIC3
T1 sequence (looked up): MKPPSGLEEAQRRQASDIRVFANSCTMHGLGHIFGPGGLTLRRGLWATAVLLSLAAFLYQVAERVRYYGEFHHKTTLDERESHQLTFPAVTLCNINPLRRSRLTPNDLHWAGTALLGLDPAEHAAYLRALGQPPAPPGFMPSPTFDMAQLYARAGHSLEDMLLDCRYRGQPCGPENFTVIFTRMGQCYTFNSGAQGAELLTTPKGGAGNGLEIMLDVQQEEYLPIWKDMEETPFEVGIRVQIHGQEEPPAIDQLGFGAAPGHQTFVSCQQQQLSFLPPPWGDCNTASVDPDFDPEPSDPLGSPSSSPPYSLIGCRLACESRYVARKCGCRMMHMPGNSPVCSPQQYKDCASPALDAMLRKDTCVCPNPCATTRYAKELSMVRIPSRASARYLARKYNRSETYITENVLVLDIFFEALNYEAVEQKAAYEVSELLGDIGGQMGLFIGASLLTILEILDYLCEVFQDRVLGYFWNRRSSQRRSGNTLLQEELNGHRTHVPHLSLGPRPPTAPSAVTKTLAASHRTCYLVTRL
Source text: (§1) For these experiments, four cell lines were constructed: (a) a mouse fibroblast 3T3 cell line stably transfected to overexpress full length human ASIC3 (3T3/hASIC3; amino acids 1-531 of NCBI accession number NP_{—}004760.1), (b) a 3T3 cell line stably transfected to co-express full length human ASIC1a and human ASIC3 (3T3/hASIC1/3; amino acids 1-528 of NCBI accession number NP_{—}001086.2 and amino acids 1-531 of NCBI accession number NP_{—}004760.1), (c) […] a stably transfected 3T3 cell line expressing the full-length mouse ASIC3 channel (3T3/mASIC3; amino acids 1-530 of NCBI accession number NP_{—}892045.2), and (d) a 3T3 cell line stably transfected to co-express full length mouse ASIC1a and mouse ASIC3 (3T3/mASIC1/3; amino acids 1-526 of NCBI accession number NP_{—}033727 and amino acids 1-530 of NCBI accession number NP_{—}892045.2). Antibody binding was determined using flow cytometry (FACS).
To perform the FACS binding experiments, adherent cells were collected with cold Millipore Accutase 3-5 minutes, spun and resuspended in ice-cold FACS buffer (PBS, 2% HI-FBS and 0.09% Na-azide). […] After incubating for 20 minutes on ice, the cells were washed and resuspended in FACS buffer, then sorted and analyzed on a flow cytometer (FACSCanto II, BD Biosciences, San Jose, Calif.) to determine relative binding by the candidate antibodies to the tested cell lines. […]

human ASIC3 = target: T2, human ASIC3 (human, UniProt Q9UHC3 1-531); assay: FACS, 3T3/hASIC3 cells
T2 construct: whole, on cells; Expressed on 3T3 cells (3T3/hASIC3) or HEK293 cells (HEK/hASIC3-QCells); also called hASIC3
T2 sequence (looked up): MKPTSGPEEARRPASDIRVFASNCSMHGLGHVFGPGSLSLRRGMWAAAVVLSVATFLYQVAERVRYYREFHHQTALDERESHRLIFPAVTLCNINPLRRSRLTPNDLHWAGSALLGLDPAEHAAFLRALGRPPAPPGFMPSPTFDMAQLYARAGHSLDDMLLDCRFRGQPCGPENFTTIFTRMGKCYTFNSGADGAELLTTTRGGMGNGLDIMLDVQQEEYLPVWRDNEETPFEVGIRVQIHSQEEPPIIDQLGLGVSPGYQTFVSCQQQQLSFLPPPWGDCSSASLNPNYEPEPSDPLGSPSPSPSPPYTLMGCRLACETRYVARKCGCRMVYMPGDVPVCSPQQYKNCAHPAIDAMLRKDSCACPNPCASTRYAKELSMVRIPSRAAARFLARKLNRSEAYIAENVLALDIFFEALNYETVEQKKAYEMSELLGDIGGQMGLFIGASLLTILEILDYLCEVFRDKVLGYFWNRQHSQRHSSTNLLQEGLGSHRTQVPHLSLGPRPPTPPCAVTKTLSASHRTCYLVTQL
Source text: as §1
(§2) To perform the FACS binding experiments, adherent cells were collected with cold Millipore Accutase 3-5 minutes, spun and resuspended in ice-cold FACS buffer (PBS, 2% HI-FBS and 0.09% Na-azide). Anti-ASIC1 antibody at final concentrations of 10 nM was added for 20-30 minutes on ice. Cells were washed with 900 μL ice-cold FACS buffer, spun, and resuspended in 100 μL ice-cold FACS buffer. A secondary antibody which recognizes human Fc (Jackson Immuno Research, #109-136-098) and is conjugated to allophycocyanin, was then added to the cell mixture at a final concentration of 2.5 ug/mL. After incubating for 20 minutes on ice, the cells were washed and resuspended in FACS buffer, then sorted and analyzed on a flow cytometer (FACSCanto II, BD Biosciences, San Jose, Calif.) to determine relative binding by the candidate antibodies to the tested cell lines. Histograms of cells stained with anti-ASIC1 antibodies were compared with those of cells stained with secondary antibody alone. Percentage of ASIC1 signal over secondary antibody alone was calculated using FlowJo software (Tree Star, Ashland, Oreg.).

human ASIC1 = target: T3, human ASIC1 (human, UniProt P78348 1-528); assay: cell-based or functional assay
T3 sequence: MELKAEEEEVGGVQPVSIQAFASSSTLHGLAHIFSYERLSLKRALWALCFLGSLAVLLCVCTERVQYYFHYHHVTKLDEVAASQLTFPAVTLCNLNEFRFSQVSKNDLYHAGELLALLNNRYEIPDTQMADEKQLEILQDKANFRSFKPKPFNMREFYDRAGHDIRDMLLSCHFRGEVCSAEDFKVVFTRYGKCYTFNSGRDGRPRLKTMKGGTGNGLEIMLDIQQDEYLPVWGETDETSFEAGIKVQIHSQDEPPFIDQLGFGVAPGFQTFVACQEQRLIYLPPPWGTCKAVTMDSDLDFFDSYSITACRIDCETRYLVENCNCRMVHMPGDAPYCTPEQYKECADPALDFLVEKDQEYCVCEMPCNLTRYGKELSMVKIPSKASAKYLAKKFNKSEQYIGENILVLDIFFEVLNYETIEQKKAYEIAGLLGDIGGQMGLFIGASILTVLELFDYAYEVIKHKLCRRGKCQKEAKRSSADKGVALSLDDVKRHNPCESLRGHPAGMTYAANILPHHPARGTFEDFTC

[1] = target: T4, mouse ASIC1/ASIC3 channels (co-expressed mouse ASIC1a and mouse ASIC3) (mouse, UniProt Q6NXK8 1-526; Q6X1Y6 1-530); assay: FACS, 3T3/mASIC1/3 cells, 10 nM antibody
T4 construct: whole, on cells; 3T3 cells co-expressing both subunits; also called 3T3/mASIC1/3
T4 sequence (looked up) 1: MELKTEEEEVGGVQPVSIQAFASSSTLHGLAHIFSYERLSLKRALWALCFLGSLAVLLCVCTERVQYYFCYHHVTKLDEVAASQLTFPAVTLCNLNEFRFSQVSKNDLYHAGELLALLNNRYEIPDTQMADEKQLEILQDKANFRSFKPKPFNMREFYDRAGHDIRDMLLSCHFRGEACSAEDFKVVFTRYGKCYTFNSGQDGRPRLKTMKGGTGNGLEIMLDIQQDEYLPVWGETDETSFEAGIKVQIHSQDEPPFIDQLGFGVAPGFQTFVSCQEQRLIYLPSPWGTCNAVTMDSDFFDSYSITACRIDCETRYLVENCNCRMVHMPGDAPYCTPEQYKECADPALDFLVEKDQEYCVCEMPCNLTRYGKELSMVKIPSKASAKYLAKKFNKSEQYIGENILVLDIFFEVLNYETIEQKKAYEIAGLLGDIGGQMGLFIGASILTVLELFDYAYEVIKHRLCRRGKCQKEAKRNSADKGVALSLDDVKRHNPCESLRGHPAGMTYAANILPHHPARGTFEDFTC
T4 sequence (looked up) 2: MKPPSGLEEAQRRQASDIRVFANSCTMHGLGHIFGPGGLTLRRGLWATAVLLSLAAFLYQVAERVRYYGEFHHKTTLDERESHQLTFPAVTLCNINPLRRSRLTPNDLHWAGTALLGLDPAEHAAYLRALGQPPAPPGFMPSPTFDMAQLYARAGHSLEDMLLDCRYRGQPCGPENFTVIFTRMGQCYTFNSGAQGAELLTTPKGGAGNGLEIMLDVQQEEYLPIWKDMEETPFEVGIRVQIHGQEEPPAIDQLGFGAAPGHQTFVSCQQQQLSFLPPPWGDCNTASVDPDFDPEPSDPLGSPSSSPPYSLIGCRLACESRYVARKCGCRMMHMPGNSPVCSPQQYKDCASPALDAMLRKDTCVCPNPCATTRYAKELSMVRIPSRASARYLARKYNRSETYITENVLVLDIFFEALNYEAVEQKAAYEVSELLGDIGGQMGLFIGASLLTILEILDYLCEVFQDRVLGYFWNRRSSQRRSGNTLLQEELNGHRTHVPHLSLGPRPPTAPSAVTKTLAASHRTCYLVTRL
Experimental: Antibody binding was determined using flow cytometry (FACS).
as §2

B1: H4H6718N (antibody, human IgG4, V domains shown)
VH: EVQLLESGGGLVQPGGSLRLSCAASGFTFSSFAMSWVRQAPGKGLEWVSGISGSGGGTHYADSVKGRFTISRDNSKNMVYLQMNSLRAEDTAAYYCAKEAYKWQPWGQGTLVTVSS
VL: DIQMTQSPSTLSASVGDRVIITCRASQRISSWLAWYQQKPGKAPNLLIYKASILESGVPSRFSGSGSGTEFTLTISSLQPDDFATYYCQQYNSYSYTFGQGTKLEIK
binding result (mouse ASIC3): no binding (tested: 10 nM) | binding result (human ASIC3): no binding (tested: 10 nM; gated lower than 1%) | apparent IC50, human ASIC1 current, Q-Patch (human ASIC1): < 1 nM | binding result [1]: binds
